Measurements taken from patent US20200332015A1 (NAMAB THERAPEUTICS, published 2020).

T1: mouse Fc-tagged mouse CD137 (R&D Systems, cat. 937-4B-050) (mouse, UniProt P20334 24-187)
T1 construct: also called mouse CD137-Fc chimeric protein
T1 sequence (looked up): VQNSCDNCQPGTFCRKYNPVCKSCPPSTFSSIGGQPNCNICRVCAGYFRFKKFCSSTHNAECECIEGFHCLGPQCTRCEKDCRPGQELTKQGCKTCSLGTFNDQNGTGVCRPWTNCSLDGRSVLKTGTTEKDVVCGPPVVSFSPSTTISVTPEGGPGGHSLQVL


Assays:
[1] = target: T2, human CD137 expressed on Jurkat cells (human, UniProt Q07011 24-255); assay: cell-based or functional assay
[2] = target: T2, human CD137 expressed on Jurkat cells; assay: cell-based or functional assay; remark: listed apart in the source
[3] = target: T2, human CD137 expressed on Jurkat cells; assay: cell-based or functional assay; remark: listed apart in the source
[4] = target: T1, mouse Fc-tagged mouse CD137 (R&D …); assay: SPR T200, antigen-Fc captured, molecule as analyte
Procedure: (§1) Affinity to PDL1 of the different species was determined by SPR measurements using a Biacore T200 device (GE Healthcare). An antibody specific for the Fc region of human IgGs was immobilized on a sensor chip (CM5 sensor chip, GE Healthcare) by amine-coupling. For all formats, with the exception of the Fc containing Morrison formats, PDL1-Fc chimeric protein from different species were captured by the immobilized antibody. Three-fold serial dilutions of the molecules specific for PDL1 (0.12-90 nM) were injected into the flow cells for three minutes and dissociation was monitored for 10 minutes. After each injection cycle, surfaces were regenerated with one injection of a 3 M MgCl₂ solution. The apparent dissociation (kd) and association (kₐ) rate constants and the apparent dissociation equilibrium constant (KD) were calculated using one-to-one Langmuir binding model. Affinity to CD137 of the different species was determined using the identical setup as for PDL1 with the exception that CD137-Fc chimeric proteins from different species were captured by the immobilized antibody.

[5] = target: T3, cynomolgus monkey Fc-tagged CD137 (R&D Systems, cat. 9324-4B-100) (cynomolgus monkey, UniProt A9YYE7 24-186); assay: SPR T200, antigen-Fc captured, molecule as analyte
T3 construct: also called cynomolgus CD137-Fc chimeric protein
Procedure: as §1

[6] = target: T4, Fc tagged human CD137 (R&D Systems, cat. 838-4B-100) (human, UniProt Q07011 24-186); assay: SPR T200, antigen-Fc captured, molecule as analyte
T4 construct: also called CD137 Fc chimera; human CD137-Fc chimeric protein
Procedure: as §1

[7] = target: human PDL1-Fc chimeric protein (human, UniProt Q9NZQ7 19-238, limits assumed); assay: SPR T200, antigen-Fc captured, molecule as analyte
Procedure: as §1

[8] = target: T2, human CD137 expressed on Jurkat cells; assay: cell-based or functional assay; remark: listed apart in the source
human serum albumin = target: T5, human serum albumin (human, UniProt P02768 25-609); assay: SPR T200, SA coupled to chip, pH 5.5
T5 construct: also called human SA; HSA
Procedure: (§2) Affinity of molecules to serum albumin (SA) of the different species was determined by SPR measurements using a Biacore T200 device (GE Healthcare). SA was directly coupled to a CM5 sensor chip (GE Healthcare) using amine coupling chemistry. […] The assay was run in a 1×PBS-Tween buffer at pH 5.5.

mouse serum albumin = target: T6, mouse serum albumin (mouse, UniProt P07724 25-608); assay: SPR T200, SA coupled to chip, pH 5.5
T6 construct: also called mouse SA; MSA
Procedure: as §2

T3 sequence (A9YYE7 entry or part of it): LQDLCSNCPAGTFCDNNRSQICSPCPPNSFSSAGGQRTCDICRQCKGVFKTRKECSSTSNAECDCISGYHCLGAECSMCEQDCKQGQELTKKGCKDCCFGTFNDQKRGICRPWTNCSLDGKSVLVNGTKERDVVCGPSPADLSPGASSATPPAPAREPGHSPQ

| Binder | EC50 NFkB-luciferase, CHO-PDL1 cells [1] | Top of curve fit, NFkB-luciferase, CHO-PDL1 cells [1] | max. activation, HCC827 +IFNg [2] | max. activation, HCC827 -IFNg [2] | max. activation, NF-kB reporter gene, CHO-PD-L1 [2] | rel. IC50 (urelumab/test), HCC827 +IFNg [2] | rel. IC50 (urelumab/test), HCC827 -IFNg [2] | rel. IC50 (urelumab/test), NF-kB reporter gene, CHO-PD-L1 [2] | EC50 NFkB-luciferase, HCC827 without IFNy [3] | Top of curve fit, NFkB-luciferase, HCC827 without IFNy [3] | Kd [6] | koff [6] | kon [6] | Kd [7] | koff [7] | kon [7] | EC50 NFkB-luciferase, HCC827 with IFNy [8] | Top of curve fit, NFkB-luciferase, HCC827 with IFNy [8] | Kd (human serum albumin) | koff (human serum albumin) | further results |
| --- | --- | --- | --- | --- | --- | --- | --- | --- | --- | --- | --- | --- | --- | --- | --- | --- | --- | --- | --- | --- | --- |
| PRO1123 (38-02-A04 sc05 IF scDb-i/33_03_G02 sc01 scDb-o) (bispecific antibody, scDb; also called PR01123) DIQMTQSPSSLSASVGDRVTITCQASQSINDYLAWYQQKPGKAPKLLIYKASTLASGVPSRFSGSGSGTDFTLTISSLQPEDFATYYCQQGYIITDIDNVFGTGTKVTVLGGGGGSQVQLQESGPGLVKPSETLSLTCKVSGFSFSNSYWICWVRQPPGKGLEWIGCTFVGSSDSTYYANWAKGRVTISVDSSKNQVSLKLSSVTAADTAVYFCARHPSDAVYGYANNLWGQGTLVTVSSGGGGSGGGGSGGGGSGGGGSIQMTQSPSSLSASVGDRVTITCQASQSINNVLAWYQQKPGKPPKLLIYRASTLASGVPSRFSGSGSGTDFTLTISSLQPEDFATYYCQSSYGNYGDFGTGTKVTVLGGGGGSQVQLQESGPGLVKPSETLSLTCKVSGFSFSSGYDMCWIRQPPGKGLEWIGCVVAGSVDITYYASWAKGRVTISVDSSKNQFSLKLSSVTAADTAVYYCARKDAYSDAFNLWGQGTLVTVSS | 5.75 ng/mL | 219 | 154% | 123% | 219% | 12.2 ratio | 6.82 ratio | 18.1 ratio | 16.1 ng/mL | 123 | 0.88 nM | 0.00027 s⁻¹ | 310000 M⁻¹ s⁻¹ | 0.075 nM | 0.00017 s⁻¹ | 2.3e+06 M⁻¹ s⁻¹ | 11.9 ng/mL | 154 |  |  | Kd [4]: 410 nM; koff [4]: 0.027 s⁻¹; kon [4]: 65000 M⁻¹ s⁻¹; Kd [5]: 1.3 nM; koff [5]: 0.00033 s⁻¹; kon [5]: 260000 M⁻¹ s⁻¹ |
| PRO963 (38_02_A04 sc01 scDb-i/33-03-G02 sc01 scDb-o/19-01-H04-sc03 scFv) (other, Trispecific scDb-scFv (PDL1 x CD137 x SA); also called PRO096 (= PRO1051)) DIQMTQSPSSLSASVGDRVTITCQASQSINDYLAWYQQKPGKAPKLLIYKASTLASGVPSRFSGSGSGTDFTLTISSLQPEDFATYYCQQGYIITDIDNVFGTGTKVTVLGGGGGSQVQLQESGPGLVKPSETLSLTCKVSGFSFSNSYWICWIRQPPGKGLEWIGCTFVGSSDSTYYANWAKGRVTISVDSSKNQFSLKLSSVTAADTAVYYCARHPSDAVYGYANNLWGQGTLVTVSSGGGGSGGGGSGGGGSGGGGSIQMTQSPSSLSASVGDRVTITCQASQSINNVLAWYQQKPGKAPKLLIYRASTLASGVPSRFSGSGSGTDFTLTISSLQPEDFATYYCQSSYGNYGDFGTGTKVTVLGGGGGSQVQLQESGPGLVKPSETLSLTCKVSGFSFSSGYDMCWIRQPPGKGLEWIGCVVAGSVDITYYASWAKGRVTISVDSSKNQFSLKLSSVTAADTAVYYCARKDAYSDAFNLWGQGTLVTVSSGGGGSGGGGSIQMTQSPSSLSASVGDRVTITCQSSESVYSNNQLSWYQQKPGQPPKLLIYDASDLASGVPSRFSGSGSGTDFTLTISSLQPEDFATYYCAGGFSSSSDTAFGGGTKLTVLGGGGGSGGGGSGGGGSGGGGSEVQLVESGGGLVQPGGSLRLSCAASGFSLSSNAMGWVRQAPGKGLEYIGIISVGGFTYYASWAKGRFTISRDNSKNTVYLQMNSLRAEDTATYFCARDRHGGDSSGAFYLWGQGTLVTVSS |  |  |  |  |  |  |  |  |  |  | 3 nM | 0.00062 s⁻¹ | 200000 M⁻¹ s⁻¹ | 0.066 nM | 0.00013 s⁻¹ | 2e+06 M⁻¹ s⁻¹ |  |  | 2.8 nM | 0.0003 s⁻¹ | kon (human serum albumin): 110000 M⁻¹ s⁻¹; binding result (mouse serum albumin): no binding |

More lines, in order of falling Kd [6], values ahead:

| EC50 NFkB-luciferase, CHO-PDL1 cells [1] | Top of curve fit, NFkB-luciferase, CHO-PDL1 cells [1] | max. activation, HCC827 +IFNg [2] | max. activation, HCC827 -IFNg [2] | max. activation, NF-kB reporter gene, CHO-PD-L1 [2] | rel. IC50 (urelumab/test), HCC827 +IFNg [2] | rel. IC50 (urelumab/test), HCC827 -IFNg [2] | rel. IC50 (urelumab/test), NF-kB reporter gene, CHO-PD-L1 [2] | EC50 NFkB-luciferase, HCC827 without IFNy [3] | Top of curve fit, NFkB-luciferase, HCC827 without IFNy [3] | Kd [6] | koff [6] | kon [6] | Kd [7] | koff [7] | kon [7] | EC50 NFkB-luciferase, HCC827 with IFNy [8] | Top of curve fit, NFkB-luciferase, HCC827 with IFNy [8] | Kd (human serum albumin) | koff (human serum albumin) | Binder | further results |
| --- | --- | --- | --- | --- | --- | --- | --- | --- | --- | --- | --- | --- | --- | --- | --- | --- | --- | --- | --- | --- | --- |
| 6 ng/mL | 242 | 208% | 135% | 242% | 19.7 ratio | 16 ratio | 14.4 ratio | 6.97 ng/mL | 135 | 3.5 nM | 0.00075 s⁻¹ | 210000 M⁻¹ s⁻¹ | ≤ 0.0035 nM | < 1e-05 s⁻¹ | 2.8e+06 M⁻¹ s⁻¹ | 5.48 ng/mL | 208 |  |  | PRO1126 (38-02-A04 sc01 scDb-i/33_03_G02 sc03 Full scDb-o) (bispecific antibody, scDb; also called PR01126) DFQLTQSPSSLSASVGDRVTITCQASQSINDYLAWYQQKPGKSPKLLIYKASTLASGVPSRFSGSGSGTDFTLTISSLQPEDFATYYCQQGYIITDIDNVFGTGTKVTVLGGGGGSQVQLQESGPGLVKPSETLSLTCKVSGFSFSNSYWICWIRQPPGKGLEWIGCTFVGSSDSTYYANWAKGRVTISVDSSKNQFSLKLSSVTAADTAVYYCARHPSDAVYGYANNLWGQGTLVTVSSGGGGSGGGGSGGGGSGGGGSIQMTQSPSSLSASVGDRVTITCQASQSINNVLAWYQQKPGKAPKLLIYRASTLASGVPSRFSGSGSGTDFTLTISSLQPEDFATYYCQSSYGNYGDFGTGTKVTVLGGGGGSQSQLQESGPGLVKPSETLSLTCKASGFSFSSGYDMCWVRQPPGKGLEWIACVVAGSVDITYYASWAKGRVTISKDSSKNQVSLKLSSVTAADTAVYFCARKDAYSDAFNLWGQGTLVTVSS | binding result [4]: no binding (tested: 0.12-90 nM) |
|  |  |  |  |  |  |  |  |  |  | 2.6 nM | 0.0005 s⁻¹ | 190000 M⁻¹ s⁻¹ | 0.0037 nM | 2.3e-05 s⁻¹ | 6.2e+06 M⁻¹ s⁻¹ |  |  | 2.9 nM | 0.00072 s⁻¹ | PRO1186 (37-20-B03 sc01 / 38-02-A04 sc01 / 23-13-A01 sc03, scDb-scFv) (other, Trispecific scDb-scFv) DIQMTQSPSSLSASVGDRVTITCQASQSIGTYLAWYQQKPGKAPKLLIYRAFILASGVPSRFSGSGSGTDFTLTISSLQPEDFATYYCQSNFYSDSTTIGPNAFGTGTKVTVLGGGGGSQVQLQESGPGLVKPSETLSLTCKVSGFSFSNSYWICWIRQPPGKGLEWIGCTFVGSSDSTYYANWAKGRVTISVDSSKNQFSLKLSSVTAADTAVYYCARHPSDAVYGYANNLWGQGTLVTVSSGGGGSGGGGSGGGGSGGGGSIQMTQSPSSLSASVGDRVTITCQASQSINNVLAWYQQKPGKAPKLLIYRASTLASGVPSRFSGSGSGTDFTLTISSLQPEDFATYYCQSSYGNYGDFGTGTKVTVLGGGGGSQVQLQESGPGLVKPSETLSLTCKVSGFSFNSDYWIYWIRQPPGKGLEWIGSIYGGSSGNTQYASWAQGRVTISVDSSKNQFSLKLSSVTAADTAVYYCARGYVDYGGATDLWGQGTLVTVSSGGGGSGGGGSVVMTQSPSSLSASVGDRVTITCQASQIISSRSAWYQQKPGQPPKLLIYQASKLASGVPSRFSGSGSGTDFTLTISSLQPEDFATYYCQCTYIDSNFGAFGGGTKLTVLGGGGGSGGGGSGGGGSGGGGSEVQLVESGGGLVQPGGSLRLSCAASGFSFSSSYWICWVRQAPGKGLEWVGCVFTGDGTTYYASWAKGRFTISRDNSKNTVYLQMNSLRAEDTATYFCARPVSVYYYGMDLWGQGTLVTVSS | max. activation, HCC827 +IFNg, 24h [2]: 129%; max. activation, NF-kB reporter gene, CHO-PD-L1, 24h [2]: 152%; rel. IC50 (urelumab/test), HCC827 +IFNg, 24h [2]: 1.88 ratio; rel. IC50 (urelumab/test), NF-kB reporter gene, CHO-PD-L1, 24h [2]: 0.97 ratio; kon (human serum albumin): 250000 M⁻¹ s⁻¹; Kd (mouse serum albumin): 43 nM; koff (mouse serum albumin): 0.0095 s⁻¹; kon (mouse serum albumin): 220000 M⁻¹ s⁻¹ |
